Data taken from US20180155451A1 (published 2018).

T1: FcγRIIa H (human, UniProt P12318 34-217)
T1 construct: extracellular domain; also called FcγRIIa type H; 2aH
T1 sequence (looked up): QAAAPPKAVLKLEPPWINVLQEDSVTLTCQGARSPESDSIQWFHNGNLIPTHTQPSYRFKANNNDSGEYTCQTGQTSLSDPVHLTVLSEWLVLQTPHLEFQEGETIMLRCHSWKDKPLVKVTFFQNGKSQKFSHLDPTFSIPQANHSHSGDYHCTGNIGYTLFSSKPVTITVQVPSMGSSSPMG

T2: FcγRIIb (human, UniProt P31994 43-217)
T2 construct: extracellular domain; also called 2b
T2 sequence (looked up): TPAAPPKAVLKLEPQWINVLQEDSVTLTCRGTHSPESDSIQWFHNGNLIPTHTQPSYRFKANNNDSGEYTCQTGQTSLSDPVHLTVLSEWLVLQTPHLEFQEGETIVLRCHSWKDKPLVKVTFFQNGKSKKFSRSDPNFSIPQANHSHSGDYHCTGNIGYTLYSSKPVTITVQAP


What was measured:
FcγRIIa H [1] = biological target: T1, FcγRIIa H; test: SPR; He/Con_2aH divided by He/Con_2b (FcγRIIb)
Protocol: The heterodimerized antibodies He Abs in which one of the H chains was introduced with an alteration were assayed for their binding activities to each activating FcγR and inhibitory FcγR according to the method described in Example 4. […] The activating FcγRs in FIGS. 26, 27, 28, and 29 are FcγRIa, FcγRIIa (R), FcγRIIa (H), and FcγRIIIa, respectively.
Analysis of interaction between objective antibody and the FcγR was carried out using Biacore T100 (GE Healthcare). HBS-EP+ (GE Healthcare) was used as the running buffer, and the measurement temperature was set to 25° C. Chips produced by immobilizing the antigen peptide by the amine coupling method to a Series S Sencor Chip CM5 (GE Healthcare), or alternatively, chips produced by allowing preliminarily biotinylated antigen peptides to interact with and immobilize onto a Series S Sensor Chip SA (certified) (GE Healthcare) were used. Antibodies of interest were captured onto an antigen peptide-immobilized chip, and allowed to interact to each FcγR diluted with running buffer. To regenerate and repeatedly use the chip, the antibodies captured on the chip were washed off by reacting 10 mM glycine-HCl, pH 1.5.

FcγRIIa H [2] = biological target: T1, FcγRIIa H; test: SPR (Biacore), relative binding vs GpH7-A5/GpH7-B3/GpL16-k0
FcγRIIb = biological target: T2, FcγRIIb; test: as above

Row | He_2aH/2b (IIaH/IIb) (FcγRIIa H [1]) | He/Con_2aH (FcγRIIa H [2]) | He/Con_2b (FcγRIIb) | Binder
1 | 0.58 ratio | 70.1 % of control He Ab (=100) | 120 % of control He Ab (=100) | GpH7-A5/GpH7-B3 variant P271_09D/GpL16-k0 (antibody, human IgG1, kappa, heterodimerized IgG1, mutation in one H chain only; also called He Ab) heavy 1: not shown heavy 2: not shown light: DIVMTQSPLSLPVTPGEPASISCQASESLVHSNRNTYLHWYLQKPGQSPQLLIYKVSNRFSGVPDRFSGSGSGTDFTLKISRVEAEDVGVYYCSQNTHVPPTFGQGTKVEIERTVAAPSVFIFPPSDEQLKSGTASVVCLLNNFYPREAKVQWKVDNALQSGNSQESVTEQDSKDSTYSLSSTLTLSKADYEKHKVYACEVTHQGLSSPVTKSFNRGEC
2 | 0.49 ratio | 120 % of control He Ab (=100) | 243 % of control He Ab (=100) | GpH7-A5/GpH7-B3 variant S267_02A/GpL16-k0 (antibody, human IgG1, kappa, heterodimerized IgG1, mutation in one H chain only; also called He Ab) heavy 1: not shown heavy 2: not shown light: DIVMTQSPLSLPVTPGEPASISCQASESLVHSNRNTYLHWYLQKPGQSPQLLIYKVSNRFSGVPDRFSGSGSGTDFTLKISRVEAEDVGVYYCSQNTHVPPTFGQGTKVEIERTVAAPSVFIFPPSDEQLKSGTASVVCLLNNFYPREAKVQWKVDNALQSGNSQESVTEQDSKDSTYSLSSTLTLSKADYEKHKVYACEVTHQGLSSPVTKSFNRGEC
3 | 0.52 ratio | 19.6 % of control He Ab (=100) | 37.9 % of control He Ab (=100) | GpH7-A5/GpH7-B3 variant S267_15Y/GpL16-k0 (antibody, human IgG1, kappa, heterodimerized IgG1, mutation in one H chain only; also called He Ab) heavy 1: not shown heavy 2: not shown light: DIVMTQSPLSLPVTPGEPASISCQASESLVHSNRNTYLHWYLQKPGQSPQLLIYKVSNRFSGVPDRFSGSGSGTDFTLKISRVEAEDVGVYYCSQNTHVPPTFGQGTKVEIERTVAAPSVFIFPPSDEQLKSGTASVVCLLNNFYPREAKVQWKVDNALQSGNSQESVTEQDSKDSTYSLSSTLTLSKADYEKHKVYACEVTHQGLSSPVTKSFNRGEC
4 | 0.47 ratio | 22.7 % of control He Ab (=100) | 48 % of control He Ab (=100) | GpH7-A5/GpH7-B3 variant S267_04F/GpL16-k0 (antibody, human IgG1, kappa, heterodimerized IgG1, mutation in one H chain only; also called He Ab) heavy 1: not shown heavy 2: not shown light: DIVMTQSPLSLPVTPGEPASISCQASESLVHSNRNTYLHWYLQKPGQSPQLLIYKVSNRFSGVPDRFSGSGSGTDFTLKISRVEAEDVGVYYCSQNTHVPPTFGQGTKVEIERTVAAPSVFIFPPSDEQLKSGTASVVCLLNNFYPREAKVQWKVDNALQSGNSQESVTEQDSKDSTYSLSSTLTLSKADYEKHKVYACEVTHQGLSSPVTKSFNRGEC
5 | 0.18 ratio | 34.7 % of control He Ab (=100) | 192 % of control He Ab (=100) | GpH7-A5/GpH7-B3 variant S267_07I/GpL16-k0 (antibody, human IgG1, kappa, heterodimerized IgG1, mutation in one H chain only; also called He Ab) heavy 1: not shown heavy 2: not shown light: DIVMTQSPLSLPVTPGEPASISCQASESLVHSNRNTYLHWYLQKPGQSPQLLIYKVSNRFSGVPDRFSGSGSGTDFTLKISRVEAEDVGVYYCSQNTHVPPTFGQGTKVEIERTVAAPSVFIFPPSDEQLKSGTASVVCLLNNFYPREAKVQWKVDNALQSGNSQESVTEQDSKDSTYSLSSTLTLSKADYEKHKVYACEVTHQGLSSPVTKSFNRGEC
6 | 0.27 ratio | 102 % of control He Ab (=100) | 379 % of control He Ab (=100) | GpH7-A5/GpH7-B3 variant S267_10E/GpL16-k0 (antibody, human IgG1, kappa, heterodimerized IgG1, mutation in one H chain only; also called He Ab) heavy 1: not shown heavy 2: not shown light: DIVMTQSPLSLPVTPGEPASISCQASESLVHSNRNTYLHWYLQKPGQSPQLLIYKVSNRFSGVPDRFSGSGSGTDFTLKISRVEAEDVGVYYCSQNTHVPPTFGQGTKVEIERTVAAPSVFIFPPSDEQLKSGTASVVCLLNNFYPREAKVQWKVDNALQSGNSQESVTEQDSKDSTYSLSSTLTLSKADYEKHKVYACEVTHQGLSSPVTKSFNRGEC
7 | 0.34 ratio | 105 % of control He Ab (=100) | 310 % of control He Ab (=100) | GpH7-A5/GpH7-B3 variant S267_09D/GpL16-k0 (antibody, human IgG1, kappa, heterodimerized IgG1, mutation in one H chain only; also called He Ab) heavy 1: not shown heavy 2: not shown light: DIVMTQSPLSLPVTPGEPASISCQASESLVHSNRNTYLHWYLQKPGQSPQLLIYKVSNRFSGVPDRFSGSGSGTDFTLKISRVEAEDVGVYYCSQNTHVPPTFGQGTKVEIERTVAAPSVFIFPPSDEQLKSGTASVVCLLNNFYPREAKVQWKVDNALQSGNSQESVTEQDSKDSTYSLSSTLTLSKADYEKHKVYACEVTHQGLSSPVTKSFNRGEC
8 | 0.27 ratio | 29 % of control He Ab (=100) | 109 % of control He Ab (=100) | GpH7-A5/GpH7-B3 variant S267_08L/GpL16-k0 (antibody, human IgG1, kappa, heterodimerized IgG1, mutation in one H chain only; also called He Ab) heavy 1: not shown heavy 2: not shown light: DIVMTQSPLSLPVTPGEPASISCQASESLVHSNRNTYLHWYLQKPGQSPQLLIYKVSNRFSGVPDRFSGSGSGTDFTLKISRVEAEDVGVYYCSQNTHVPPTFGQGTKVEIERTVAAPSVFIFPPSDEQLKSGTASVVCLLNNFYPREAKVQWKVDNALQSGNSQESVTEQDSKDSTYSLSSTLTLSKADYEKHKVYACEVTHQGLSSPVTKSFNRGEC
9 | 0.45 ratio | 29.8 % of control He Ab (=100) | 65.9 % of control He Ab (=100) | GpH7-A5/GpH7-B3 variant S267_16H/GpL16-k0 (antibody, human IgG1, kappa, heterodimerized IgG1, mutation in one H chain only; also called He Ab) heavy 1: not shown heavy 2: not shown light: DIVMTQSPLSLPVTPGEPASISCQASESLVHSNRNTYLHWYLQKPGQSPQLLIYKVSNRFSGVPDRFSGSGSGTDFTLKISRVEAEDVGVYYCSQNTHVPPTFGQGTKVEIERTVAAPSVFIFPPSDEQLKSGTASVVCLLNNFYPREAKVQWKVDNALQSGNSQESVTEQDSKDSTYSLSSTLTLSKADYEKHKVYACEVTHQGLSSPVTKSFNRGEC
